Source: patent US20250108100A1, “C-TERMINAL FRAGMENT OF APOLIPOPROTEIN E AND APPLICATION THEREOF IN INHIBITING y-SECRETASE ACTIVITY” (SYNPHATEC (SHANGHAI) BIOPHARMACEUTICAL TECHNOLOGY CO., LTD., priority 2022, published 2025)

Tested on: human APP and β-secretase co-expressed in HEK 293T cells
Test: HEK 293T cells co-expressing APP and β-secretase (BACE1): Aβ ELISA and β-CTF Western blot
Format: cell-based
Settings: APP and β-secretase co-expressed, ELISA, vs GFP control
Experimental: The experiment was performed according to the standard procedure in the ELISA analysis kit of Invitrogen Company. • a) The target protein was expressed in HEK 293T cell line. Cells were subcultured one day before transfection, and transfection was performed when the degree of cell adhesion reached 70%-80%. The transfection reagent was lipofectamine2000 (ThermoFisher). • b) 4-6 hours post transfection, medium were replaced with fresh cell culture medium. • c) 36-48 hours post transfection, the cell culture medium was collected, and then the ELISA process was performed or the cell culture medium was frozen in a −80° C. refrigerator. • d) 50 μl of standard samples and experimental samples were added to each well of the 96-well plate. • e) 50 μl of human-derived Aβ40 or Aβ42 or mouse-derived Aβ40 detection antibody was added to each well of the 96-well plate. • f) The above samples were shaken gently and placed at room temperature for 3 hours. • g) The liquid in the well were removed, and the plate was washed 4 times with 1× wash buffer. • h) 100 μl of the buffer containing 1× anti-Rabbit IgG HRP was added. • i) The plate was shaken gently and placed at room temperature for […]. • j) The liquid in the well were removed, and the well was washed 4 times with 1× wash buffer. • k) 100 μl of Stabilized Chromogen was added to each well, and the plate was placed in the dark for 30 minutes at room temperature. • l) 100 μl of Stop Solution was added to each well. • m) The absorbance at 450 nm was measured with a microplate reader. 2.4 qRT-PCR
48 hours after transfection of HEK 293T cells and N2A cells, or 4.5 days after lentivirus infection of neurons, media and lysates were collected. Aβ40 and Aβ42 in the culture medium and cell lysates were detected by an Aβ ELISA kit as indicated in the protocol. (Invitrogen Technology; KHB3481 for human Aβ40, KHB3441 for human Aβ42 and KMB3481 for mouse Aβ40).
Data were analyzed by GraphPad Prism software (v6) using unpaired, paired, or one-sample t-tests. Aβ40 and Aβ42 levels were normalized to the corresponding GFP controls. α-CTF levels were normalized to FL-APP and corresponding GFP controls. All data are represented as mean±SEM. Statistical significance was defined as p<0.05. One, two, three and four stars (*) in the graph indicate p-values <0.05, <0.01, <0.001 and <0.0001, respectively.

Molecule	production of Aβ40
CT ND5: SEQ ID NO: 22; ApoE CT with 5 N-terminal amino acids deleted (protein) MGSRTRDRLDEVKEQVAEVRAKLEEQAQQIRLQAEAFQARLKSWFEPLVEDMQRQWAGLVEKVQAAVGTSAAPVPSDNH	can still reduce Aβ40
CT NA2: SEQ ID NO: 14; ApoE CT with 2 original ApoE residues added to the N-terminus (protein) LRARMEEMGSRTRDRLDEVKEQVAEVRAKLEEQAQQIRLQAEAFQARLKSWFEPLVEDMQRQWAGLVEKVQAAVGTSAAPVPSDNH	completely lost the ability to reduce Aβ
CT ND2: SEQ ID NO: 19; ApoE CT with 2 N-terminal amino acids deleted (protein) MEEMGSRTRDRLDEVKEQVAEVRAKLEEQAQQIRLQAEAFQARLKSWFEPLVEDMQRQWAGLVEKVQAAVGTSAAPVPSDNH	can still reduce Aβ40
CT ND1: SEQ ID NO: 18; ApoE CT with 1 N-terminal amino acid deleted (protein) RMEEMGSRTRDRLDEVKEQVAEVRAKLEEQAQQIRLQAEAFQARLKSWFEPLVEDMQRQWAGLVEKVQAAVGTSAAPVPSDNH	can still reduce Aβ40
CT CD10: SEQ ID NO: 24; ApoE CT with 10 C-terminal amino acids deleted (protein) ARMEEMGSRTRDRLDEVKEQVAEVRAKLEEQAQQIRLQAEAFQARLKSWFEPLVEDMQRQWAGLVEKVQAAVGT	still reduce the production of Aβ
CT NA1: SEQ ID NO: 13; ApoE CT with 1 original ApoE residue added to the N-terminus (protein) RARMEEMGSRTRDRLDEVKEQVAEVRAKLEEQAQQIRLQAEAFQARLKSWFEPLVEDMQRQWAGLVEKVQAAVGTSAAPVPSDNH	still reduces the production of Aβ40
CT NA3: SEQ ID NO: 15; ApoE CT with 3 original ApoE residues added to the N-terminus (protein) RLRARMEEMGSRTRDRLDEVKEQVAEVRAKLEEQAQQIRLQAEAFQARLKSWFEPLVEDMQRQWAGLVEKVQAAVGTSAAPVPSDNH	completely lost the ability to reduce Aβ
CT NA4: SEQ ID NO: 16; ApoE CT with 4 original ApoE residues added to the N-terminus (protein) ERLRARMEEMGSRTRDRLDEVKEQVAEVRAKLEEQAQQIRLQAEAFQARLKSWFEPLVEDMQRQWAGLVEKVQAAVGTSAAPVPSDNH	completely lost the ability to reduce Aβ
CT CD5: SEQ ID NO: 23; ApoE CT with 5 C-terminal amino acids deleted (protein) ARMEEMGSRTRDRLDEVKEQVAEVRAKLEEQAQQIRLQAEAFQARLKSWFEPLVEDMQRQWAGLVEKVQAAVGTSAAPV	still reduce the production of Aβ
CT NA5: SEQ ID NO: 17; ApoE CT with 5 original ApoE residues added to the N-terminus (protein) GERLRARMEEMGSRTRDRLDEVKEQVAEVRAKLEEQAQQIRLQAEAFQARLKSWFEPLVEDMQRQWAGLVEKVQAAVGTSAAPVPSDNH	completely lost the ability to reduce Aβ
